{"source": "patent US20170298331", "key": {"[1]": {"tested_on": "TALEN TN3 (Artificial)", "experiment": "cell_activity", "conditions": "pair TN3/8, 17 bp spacer, preceded by 5'-T; Surveyor assay in DMD myoblasts (up to 12.7% and 6.8% in two lines)"}, "[2]": {"tested_on": "TALEN TN8 (Artificial)", "experiment": "cell_activity", "conditions": "pair TN3/8, 17 bp spacer, preceded by 5'-T; Surveyor assay in DMD myoblasts (up to 12.7% and 6.8% in two lines)"}}}
{"sequence": "AGCTCCTACTCAGACT (double strand) [TN3 half-site, DMD exon 51]", "values": [{"measurement": "activity (% modified alleles)", "setting": "[1]", "value": 12.7}]}
{"sequence": "CCTTAGTAACCACAGGT (double strand) [TN8 half-site, DMD exon 51]", "values": [{"measurement": "activity (% modified alleles)", "setting": "[2]", "value": 12.7}]}
